These results are taken from PMC3150472 (Structure (London, England : 1993), 2011).

*1 amine or outer side, *2 acyl side, *3 side chain or, on linkers, in order; H or OH if unused. Where no end group is shown, it is not given here. [ ]: non-standard residue; d: D form. CEL = Nε-carboxy-ethyl-lysine, CC(NCCCC[C@H](N[*:1])C(=O)[*:2])C(=O)[*:3]; CML = Nε-carboxy-methyl-lysine, O=C([C@H](CCCCNCC(=O)[*:3])N[*:1])[*:2]

Data set [1] has as its system RAGE. Particulars: free amino acid, not embedded in a peptide; ref Xie et al., 2008; cited from earlier work.
The target of data set [2] is V domain of RAGE (Homo sapiens, UniProt Q15109). Nature of the data set: Tryptophan fluorescence titration, wild type V domain. Particulars: single site binding isotherm, 25 °C, pH 6.5, 100 mM NaCl.
For data set [3], the target named is V domain of RAGE (wild type) (human, UniProt Q15109 24-125). Kind of data set: other fluorescence titration.
Data set [4] deals with the molecule itself. Nature of the data set: NMR gradient diffusion.
In data set [5] the target is R98A V domain of RAGE (human, UniProt Q15109 24-125, R98A). Nature of the data set: other fluorescence titration.
R98A V domain of RAGE, sequence (Q15109 24-125 R98A): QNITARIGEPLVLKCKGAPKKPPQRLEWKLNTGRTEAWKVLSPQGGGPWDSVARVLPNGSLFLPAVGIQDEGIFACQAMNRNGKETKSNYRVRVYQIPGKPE
Data set [6] addresses K52A V domain of RAGE (human, UniProt Q15109 24-125, K52A). Nature of the data set: other fluorescence titration.
Data set [7] addresses K52A, R98A V domain of RAGE (human, UniProt Q15109 24-125, K52A | R98A). Nature of the data set: other fluorescence titration.

K52A, R98A V domain of RAGE, sequence (Q15109 24-125 K52A/R98A): as the sequence (Q15109 24-125 R98A) above, with K29A counted along it
K52A V domain of RAGE, sequence (Q15109 24-125 K52A): as the sequence (Q15109 24-125 R98A) above, with K29A, A75R counted along it

Regarding `CC(NCCCC[C@H](N)C(=O)O)C(=O)O` (stereo partly shown) [CEL, Nε-carboxy-ethyl-lysine], the “binding to RAGE” value in data set [1] was “do not bind”.

As for `N[C@@H](CCCCNCC(=O)O)C(=O)O` [CML, Nε-carboxy-methyl-lysine], the “binding to RAGE” value in data set [1] is listed as “do not bind”.

For `CC(NCCCC[C@H](NC(=O)[C@H](Cc1ccccc1)NC(=O)[C@H](CCC(=O)O)NC(=O)[C@@H](N)CC(=O)O)C(=O)N[C@@H](C)C(=O)N[C@@H](CC(=O)O)C(=O)N[C@@H](CCC(=O)O)C(=O)O)C(=O)O` (stereo partly shown) [DEF(CEL)ADE], in data set [2], binding was put at a Kd of 104 ± 5 µM.

As for `CC(C)C[C@H](NC(=O)[C@H](CC(=O)O)NC(=O)[C@H](CCCCNC(C)C(=O)O)NC(=O)[C@@H](N)Cc1ccccc1)C(=O)NCC(=O)N[C@@H](CCC(=O)O)C(=O)N[C@@H](CCC(=O)O)C(=O)O` (stereo partly shown) [F(CEL)DLGEE], in data set [2], the Kd worked out at 93 ± 6 µM.

F[CML]DLGEE [F(CML)DLGEE]: in data set [3], the Kd worked out at 87 ± 5 µM.

For the molecule DEF[CML]ADE [DEF(CML)ADE], in data set [3], the Kd was 97 ± 3 µM.

B1: VC1 domain of RAGE (wild type) (domain or fragment, human, UniProt Q15109 23-243, looked up)
chain: AQNITARIGEPLVLKCKGAPKKPPQRLEWKLNTGRTEAWKVLSPQGGGPWDSVARVLPNGSLFLPAVGIQDEGIFRCQAMNRNGKETKSNYRVRVYQIPGKPEIVDSASELTAGVPNKVGTCVSEGSYPAGTLSWHLDGKPLVPNEKGVSVKEQTRRHPETGLFTLQSELMVTPARGGDPRPTFSCSFSPGLPRHRALRTAPIQPRVWEPVPLEEVQLVVE
Regarding B1, the binding result in data set [4] was “binds”.

As for DEF[CEL]ADE [DEF(CEL)ADE], the Kd in data set [5] came out at 685 ± 26 µM; in data set [6], 560 ± 32 µM; in data set [7], 912 ± 42 µM.
